Assay: Radiation dosimetry and clearance kinetics from biodistribution data
Assay type: in vivo, BALB/c mice

In the case of `C[C@@H](O)[C@H](NC(=O)[C@@H]1CSSC[C@H](NC(=O)[C@@H](Cc2ccccc2)NC(=O)CN2CCN(CC(=O)O)CCN(CC(=O)O)CCN(CC(=O)O)CC2)C(=O)N[C@@H](Cc2ccc(O)cc2)C(=O)N[C@H](Cc2c[nH]c3ccccc23)C(=O)N[C@@H](CCCCN)C(=O)N[C@@H]([C@@H](C)O)C(=O)N1)C(=O)O` [[^225Ac]Ac-DOTA-TATE, metal not drawn], the Absorbed dose/injected activity (^213Po, Intestine) is reported as 0.0001 Gy/kBq, the “Accumulated activity/organ, A~” value (^213Po, Intestine) is reported as 3.6681 kBq×h and the “Decay rate constant, λeff” value (^213Po, Intestine) is reported as 0.0210 h⁻¹. The “Initial activity/organ, A○” value (^213Po, Intestine) was 0.1340 kBq, the Absorbed dose/injected activity (^213Po, Kidney) was 0.0015 Gy/kBq and the “Accumulated activity/organ, A~” value (^213Po, Kidney) was 7.7700 kBq×h. For the same compound, the “Decay rate constant, λeff” value (^213Po, Kidney) was 0.0250 h⁻¹, the “Initial activity/organ, A○” value (^213Po, Kidney) was 0.3639 kBq and the Absorbed dose/injected activity (^213Po, Liver) was 0.0016 Gy/kBq. The “Accumulated activity/organ, A~” value (^213Po, Liver) was 28.7854 kBq×h, the “Decay rate constant, λeff” value (^213Po, Liver) was -0.0073 h⁻¹ and the “Initial activity/organ, A○” value (^213Po, Liver) was 0.0948 kBq. The Absorbed dose/injected activity (^213Po, Lung) was 0.0002 Gy/kBq, the “Accumulated activity/organ, A~” value (^213Po, Lung) was 0.9636 kBq×h and the “Decay rate constant, λeff” value (^213Po, Lung) was 0.0170 h⁻¹. The “Initial activity/organ, A○” value (^213Po, Lung) was 0.0270 kBq, the Absorbed dose/injected activity (^213Po, Muscle) was 0.0001 Gy/kBq and the “Accumulated activity/organ, A~” value (^213Po, Muscle) was 0.3058 kBq×h. For the same compound, the “Decay rate constant, λeff” value (^213Po, Muscle) was 0.0050 h⁻¹, the “Initial activity/organ, A○” value (^213Po, Muscle) was 0.0034 kBq and the Absorbed dose/injected activity (^213Po, Pancreas) was 0.0002 Gy/kBq. For the same compound, the “Accumulated activity/organ, A~” value (^213Po, Pancreas) was 0.5253 kBq×h, the “Decay rate constant, λeff” value (^213Po, Pancreas) was 0.0140 h⁻¹ and the “Initial activity/organ, A○” value (^213Po, Pancreas) was 0.0119 kBq. The Absorbed dose/injected activity (^213Po, Salivary) was 0.0002 Gy/kBq, the “Accumulated activity/organ, A~” value (^213Po, Salivary) was 0.6047 kBq×h and the “Decay rate constant, λeff” value (^213Po, Salivary) was 0.0030 h⁻¹. For the same compound, the “Initial activity/organ, A○” value (^213Po, Salivary) was 0.0056 kBq, the Absorbed dose/injected activity (^213Po, Skin) was 0.0001 Gy/kBq and the “Accumulated activity/organ, A~” value (^213Po, Skin) was 0.5575 kBq×h. For the same compound, the “Decay rate constant, λeff” value (^213Po, Skin) was 0.0040 h⁻¹, the “Initial activity/organ, A○” value (^213Po, Skin) was 0.0056 kBq and the Absorbed dose/injected activity (^213Po, Spleen) was 0.0006 Gy/kBq. For the same compound, the “Accumulated activity/organ, A~” value (^213Po, Spleen) was 1.2470 kBq×h, the “Decay rate constant, λeff” value (^213Po, Spleen) was -0.0024 h⁻¹ and the “Initial activity/organ, A○” value (^213Po, Spleen) was 0.0068 kBq. The Absorbed dose/injected activity (^213Po, Stomach) was 0.0005 Gy/kBq, the “Accumulated activity/organ, A~” value (^213Po, Stomach) was 2.4230 kBq×h and the “Decay rate constant, λeff” value (^213Po, Stomach) was 0.0190 h⁻¹. For the same compound, the “Initial activity/organ, A○” value (^213Po, Stomach) was 0.0777 kBq, the Absorbed dose/injected activity (^217At, Blood) was 0.001 Gy/kBq and the “Accumulated activity/organ, A~” value (^217At, Blood) was 0.5594 kBq×h. For the same compound, the “Initial activity/organ, A○” value (^217At, Blood) was 0.0019 kBq, the Absorbed dose/injected activity (^217At, Bone) was 0.0003 Gy/kBq and the “Accumulated activity/organ, A~” value (^217At, Bone) was 1.0195 kBq×h. The “Decay rate constant, λeff” value (^217At, Bone) was 0.0100 h⁻¹, the “Initial activity/organ, A○” value (^217At, Bone) was 0.0170 kBq and the Absorbed dose/injected activity (^217At, Brain) was 0.0001 Gy/kBq. The “Accumulated activity/organ, A~” value (^217At, Brain) was 0.7934 kBq×h, the “Decay rate constant, λeff” value (^217At, Brain) was -0.0044 h⁻¹ and the “Initial activity/organ, A○” value (^217At, Brain) was 0.0036 kBq. For the same compound, the Absorbed dose/injected activity (^217At, Heart) was 0.00001 Gy/kBq, the “Accumulated activity/organ, A~” value (^217At, Heart) was 0.2102 kBq×h and the “Decay rate constant, λeff” value (^217At, Heart) was 0.0190 h⁻¹. The “Initial activity/organ, A○” value (^217At, Heart) was 0.0067 kBq, the Absorbed dose/injected activity (^217At, Intestine) was 0.0002 Gy/kBq and the “Accumulated activity/organ, A~” value (^217At, Intestine) was 7.2991 kBq×h. The “Decay rate constant, λeff” value (^217At, Intestine) was 0.0130 h⁻¹, the “Initial activity/organ, A○” value (^217At, Intestine) was 0.1532 kBq and the Absorbed dose/injected activity (^217At, Kidney) was 0.0021 Gy/kBq. The “Accumulated activity/organ, A~” value (^217At, Kidney) was 12.5136 kBq×h, the “Decay rate constant, λeff” value (^217At, Kidney) was 0.0190 h⁻¹ and the “Initial activity/organ, A○” value (^217At, Kidney) was 0.4011 kBq. The Absorbed dose/injected activity (^217At, Liver) was 0.0016 Gy/kBq, the “Accumulated activity/organ, A~” value (^217At, Liver) was 32.1637 kBq×h and the “Decay rate constant, λeff” value (^217At, Liver) was -0.0033 h⁻¹. The “Initial activity/organ, A○” value (^217At, Liver) was 0.1612 kBq, the “Accumulated activity/organ, A~” value (^217At, Lung) was 1.7734 kBq×h and the “Decay rate constant, λeff” value (^217At, Lung) was 0.0080 h⁻¹. For the same compound, the “Initial activity/organ, A○” value (^217At, Lung) was 0.251 kBq, the Absorbed dose/injected activity (^217At, Muscle) was 0.00000 Gy/kBq and the “Accumulated activity/organ, A~” value (^217At, Muscle) was 0.1848 kBq×h. For the same compound, the “Decay rate constant, λeff” value (^217At, Muscle) was 0.0170 h⁻¹.
